Broadly, the Kd is the concentration at which binding is half-saturated.

B1: GST-fused PH domain of kindlin-3 (351–476) (domain or fragment, UniProt Q86UX7-2 351-476, looked up)
chain: ELKDHLRIFRPRKLTLKGYRQHWVVFKETTLSYYKSQDEAPGDPIQQLNLKGCEVVPDVNVSGQKFCIKLLVPSPEGMSEIYLRCQDEQQYARWMAGCRLASKGRTMADSSYTSEVQAILAFLSLQ
B2: GST-fused PH domain of kindlin-1 (374–496) (domain or fragment, UniProt Q9BQL6 374-496, looked up)
chain: DNLKLFRPKKLLPKAFKQYWFIFKDTSIAYFKNKELEQGEPLEKLNLRGCEVVPDVNVAGRKFGIKLLIPVADGMNEMYLRCDHENQYAQWMAACMLASKGKTMADSSYQPEVLNILSFLRMK
B3: GST-fused PH domain of kindlin-2 (374–499) (domain or fragment, UniProt Q96AC1 374-499, looked up)
chain: ELADYIKVFKPKKLTLKGYKQYWCTFKDTSISCYKSKEESSGTPAHQMNLRGCEVTPDVNISGQKFNIKLLIPVAEGMNEIWLRCDNEKQYAHWMAACRLASKGKTMADSSYNLEVQNILSFLKMQ

Chain of flag-tagged paxillin (P49023 whole entry): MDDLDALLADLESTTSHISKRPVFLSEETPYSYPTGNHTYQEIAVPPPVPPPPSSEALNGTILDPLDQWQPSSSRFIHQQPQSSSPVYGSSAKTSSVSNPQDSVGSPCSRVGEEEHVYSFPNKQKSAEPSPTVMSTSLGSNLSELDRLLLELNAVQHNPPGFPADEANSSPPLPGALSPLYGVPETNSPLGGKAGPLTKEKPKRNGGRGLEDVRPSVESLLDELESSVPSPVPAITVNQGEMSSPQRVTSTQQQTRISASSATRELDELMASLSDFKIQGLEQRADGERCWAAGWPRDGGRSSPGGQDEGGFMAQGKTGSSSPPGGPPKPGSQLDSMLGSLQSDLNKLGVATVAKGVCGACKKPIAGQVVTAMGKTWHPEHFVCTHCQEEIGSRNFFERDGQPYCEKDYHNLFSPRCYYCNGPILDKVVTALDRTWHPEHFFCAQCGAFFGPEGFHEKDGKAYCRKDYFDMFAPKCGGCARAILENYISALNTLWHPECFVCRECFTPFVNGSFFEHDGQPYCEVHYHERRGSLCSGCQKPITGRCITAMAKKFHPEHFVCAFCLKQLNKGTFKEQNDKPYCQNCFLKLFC

The test concerns the target flag-tagged paxillin (UniProt P49023 1-591). Briefly: BLI.
Consider B1, for which the affinity, expressed as Kd, was 7.6 µM.

In turn, B2 gave a Kd of 14.2 µM. For B3 the value was 23.5 µM.

The record behind these values is paper PMC9080902 (Journal of thrombosis and haemostasis : JTH, 2021).
